# Assay results as given in article doi:10.1101/2022.04.10.487811 (bioRxiv, 2022).
# Molecular target: SARS-CoV-2 Beta-variant Spike with six stabilizing proline substitutions (S-6P) (SARS-CoV-2 Beta variant, strain)
# Assay: BLI
binder,measurement,value
"C143 variant VL T33N-G53V, IgG (antibody, V domains shown) VH: EVQLVESGGGLVQPGGSLRLSCAASGFSVSTKYMTWVRQAPGKGLEWVSVLYSGGSDYYADSVKGRFTISRDNSKNALYLQMNSLRVEDTGVYYCARDSSEVRDHPGHPGRSVGAFDIWGQGTMVTVSS VL: QSALTQPASVSGSPGQSITISCTGTSNDVGSYNLVSWYQQYPGKAPKLLIFEVTKRSSGISNRFSGSKSGNTASLTISGLQGEDEADYYCCSYAGASTFVFGGGTKLTVL",binding result,binds
